# Measurements: patent US20040203101A1 (Human Genome Sciences, published 2004)
# B1: human BAIT (Brain-Associated Inhibitor of Tissue-Type Plasminogen Activator), mature protein expressed in baculovirus/Sf9 cells and purified (other)
# chain: ATFPEEAIADLSVNMYNRLRATGEDENILFSPLSIALAMGMMELGAQGSTQKEIRHSMGYDSLKNGEEFSFLKEFSNMVTAKESQYVMKIANSLFVQNGFHVNEEFLQMMKKYFNAAVNHVDFSQNVAVANYINKWVENNTNNLVKDLVSPRDFDAATYLALINAVYFKGNWKSQFRPENTRTFSFTKDDESEVQIPMMYQQGEFYYGEFSDGSNEAGGIYQVLEIPYEGDEISMMLVLSRQEVPLATLEPLVKAQLVEEWANSVKKQKVEVYLPRFTVEQEIDLKDVLKALGITEIFIKDANLTGLSDNKEIFLSKAIHKSFLEVNEEGSEAAAVSGMIAISRMAVLYPQVIVDHPFFFLIRNRRTGTILFMGRVMHPETMNTSGHDFEEL
# modifications: glycosylated (positions not stated)
# notes: The preparation has mixed N-termini (also called BAIT protein); neural serpin
# Assays:
# [1] = biological target: human low molecular weight uPA (human, UniProt P00749 156-431); assay: kinetic constants for the interaction of BAIT with proteinases; method not described
# plasmin = plasmin (Homo sapiens (Human), UniProt P00747 97-580; P00747 581-810, Two chains joined by disulfide bonds after cleavage of plasminogen at Arg580-Val581 (precursor count).); assay: as above
# Chain of plasmin (P00747 97-580 limits assumed, form in doubt, chain 1 of 2): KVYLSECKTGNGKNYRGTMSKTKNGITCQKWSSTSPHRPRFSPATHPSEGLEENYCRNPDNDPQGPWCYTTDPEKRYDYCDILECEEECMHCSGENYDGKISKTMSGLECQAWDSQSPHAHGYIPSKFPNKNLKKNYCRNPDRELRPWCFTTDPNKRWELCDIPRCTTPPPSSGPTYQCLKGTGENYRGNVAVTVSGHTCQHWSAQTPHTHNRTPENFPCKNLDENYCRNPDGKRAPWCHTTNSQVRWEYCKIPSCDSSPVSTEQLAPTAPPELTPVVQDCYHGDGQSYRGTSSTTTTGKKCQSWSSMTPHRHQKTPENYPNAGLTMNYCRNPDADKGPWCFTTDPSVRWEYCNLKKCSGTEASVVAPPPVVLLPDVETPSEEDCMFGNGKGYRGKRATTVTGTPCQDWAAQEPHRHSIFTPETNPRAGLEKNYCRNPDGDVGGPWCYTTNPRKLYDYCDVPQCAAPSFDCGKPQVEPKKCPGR
# Chain of plasmin (P00747 581-810 limits assumed, form in doubt, chain 2 of 2): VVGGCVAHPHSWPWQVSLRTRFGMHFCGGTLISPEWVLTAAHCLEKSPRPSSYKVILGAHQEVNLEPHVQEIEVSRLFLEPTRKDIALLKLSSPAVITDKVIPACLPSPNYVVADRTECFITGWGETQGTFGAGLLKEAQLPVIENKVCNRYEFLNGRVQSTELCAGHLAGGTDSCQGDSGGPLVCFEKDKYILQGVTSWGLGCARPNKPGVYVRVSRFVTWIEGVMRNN
# human two-chain tPA [2] = biological target: T1, human two-chain tPA (human, UniProt P00750 36-310; P00750 311-562); assay: as above
# T1 construct: Two-chain (cleaved) form; also called tctPA
# T1 sequence (P00750 36-310 limits assumed, chain 1 of 2): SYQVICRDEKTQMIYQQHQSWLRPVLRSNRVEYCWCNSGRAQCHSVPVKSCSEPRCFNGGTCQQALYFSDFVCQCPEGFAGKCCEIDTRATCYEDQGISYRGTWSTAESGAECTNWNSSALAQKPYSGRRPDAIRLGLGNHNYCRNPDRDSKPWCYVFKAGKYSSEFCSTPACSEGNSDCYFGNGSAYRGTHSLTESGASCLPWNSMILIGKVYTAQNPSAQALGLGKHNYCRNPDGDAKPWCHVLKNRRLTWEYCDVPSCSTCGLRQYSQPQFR
# T1 sequence (P00750 311-562 limits assumed, chain 2 of 2): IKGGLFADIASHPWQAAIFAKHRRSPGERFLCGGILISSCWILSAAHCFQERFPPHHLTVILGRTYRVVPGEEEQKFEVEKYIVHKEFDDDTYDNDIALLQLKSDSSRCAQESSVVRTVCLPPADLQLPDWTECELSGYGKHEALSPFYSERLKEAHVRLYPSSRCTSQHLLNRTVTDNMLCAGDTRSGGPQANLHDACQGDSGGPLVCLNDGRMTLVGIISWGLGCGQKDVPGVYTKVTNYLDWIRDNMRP
# thrombin = thrombin (Homo sapiens (Human), UniProt P00734 328-363; P00734 364-622); assay: as above
# bovine beta trypsin [3] = biological target: T2, bovine beta trypsin (bovine, UniProt P00760 24-246); assay: as above
# T2 construct: also called β-trypsin
# T2 sequence (P00760 24-246 limits assumed): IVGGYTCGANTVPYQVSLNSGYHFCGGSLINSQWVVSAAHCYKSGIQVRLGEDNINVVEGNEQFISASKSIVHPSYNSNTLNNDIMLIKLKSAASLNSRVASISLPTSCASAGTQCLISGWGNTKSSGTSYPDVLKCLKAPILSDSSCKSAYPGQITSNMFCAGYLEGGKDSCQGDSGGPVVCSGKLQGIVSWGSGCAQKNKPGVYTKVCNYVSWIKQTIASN
# [4] = biological target: T3, human high molecular weight uPA (human, UniProt P00749 21-431); assay: as above
# T3 construct: also called uPA-H
# human single-chain tPA = biological target: T4, human single-chain tPA (human, UniProt P00750 36-562); assay: as above
# T4 construct: also called sctPA
# T4 sequence (P00750 36-562 limits assumed): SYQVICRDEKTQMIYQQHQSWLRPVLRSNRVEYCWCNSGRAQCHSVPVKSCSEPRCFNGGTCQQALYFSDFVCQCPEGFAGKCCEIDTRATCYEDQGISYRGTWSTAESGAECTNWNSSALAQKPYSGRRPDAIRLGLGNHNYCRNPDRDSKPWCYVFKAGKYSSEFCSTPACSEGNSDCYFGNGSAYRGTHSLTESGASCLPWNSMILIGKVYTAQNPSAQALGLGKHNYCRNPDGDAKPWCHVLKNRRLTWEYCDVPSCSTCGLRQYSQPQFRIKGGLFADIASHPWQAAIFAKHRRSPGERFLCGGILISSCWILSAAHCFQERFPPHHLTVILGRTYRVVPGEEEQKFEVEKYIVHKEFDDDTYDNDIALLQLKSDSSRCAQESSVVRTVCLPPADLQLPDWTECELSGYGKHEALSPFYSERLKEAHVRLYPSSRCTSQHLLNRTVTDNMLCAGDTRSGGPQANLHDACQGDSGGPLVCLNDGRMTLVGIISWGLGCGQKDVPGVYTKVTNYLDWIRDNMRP
# human two-chain tPA [5] = biological target: T1, human two-chain tPA; assay: comparison of rates of inhibition from Table I; reference BAIT with uPA
# human two-chain tPA [6] = biological target: T1, human two-chain tPA; assay: comparison of rates of inhibition; reference PAI-1 with tPA
# human two-chain tPA [7] = biological target: T1, human two-chain tPA; assay: comparison of rates of inhibition; reference PN-1 with tPA
# [8] = biological target: tissue-type plasminogen activator, tPA (Genentech) (human, UniProt P00750 36-562); assay: cell-based or functional assay
# Chain of tissue-type plasminogen activator, tPA (Genentech) (P00750 36-562 limits assumed): as above
# bovine beta trypsin [9] = biological target: T2, bovine beta trypsin; assay: cell-based or functional assay
# [10] = biological target: urokinase-type plasminogen activator, uPA (Serono) (UniProt P00749 21-431, limits assumed); assay: cell-based or functional assay
binder,measurement,setting,value
B1,K,[1],1.4 µM
same,k,[1],0.013 s⁻¹
same,ki,[1],9200 M⁻¹ s⁻¹
same,K,plasmin,0.15 µM
same,k,plasmin,5.2e-05 s⁻¹
same,ki,plasmin,360 M⁻¹ s⁻¹
same,K,human two-chain tPA [2],0.12 µM
same,k,human two-chain tPA [2],0.078 s⁻¹
same,ki,human two-chain tPA [2],620000 M⁻¹ s⁻¹
same,K,thrombin,0.64 µM
same,k,thrombin,0.000131 s⁻¹
same,ki,thrombin,210 M⁻¹ s⁻¹
same,K,bovine beta trypsin [3],0.16 µM
same,k,bovine beta trypsin [3],0.0096 s⁻¹
same,ki,bovine beta trypsin [3],59000 M⁻¹ s⁻¹
same,K,[4],0.2 µM
same,k,[4],0.005 s⁻¹
same,ki,[4],25000 M⁻¹ s⁻¹
same,K,human single-chain tPA,2.1 µM
same,k,human single-chain tPA,0.17 s⁻¹
same,ki,human single-chain tPA,80000 M⁻¹ s⁻¹
same,fold faster rate of inhibition of tPA than of uPA,human two-chain tPA [5],~25 fold
same,fold slower reaction with tPA than PAI-1,human two-chain tPA [6],~30 fold
same,fold faster reaction with tPA than PN-1,human two-chain tPA [7],~20 fold
same,"half-maximal inhibitory concentration (IC50) of proteolytic activity, single step chromogenic assay",[8],200 nM
same,"half-maximal inhibitory concentration (IC50) of proteolytic activity, single step chromogenic assay",bovine beta trypsin [9],700 nM
same,"half-maximal inhibitory concentration (IC50) of proteolytic activity, single step chromogenic assay",[10],1000 nM
